Changes are numbered by the printed parent chain. Names may count otherwise.

T1: TNFR1 (Homo sapiens, UniProt P19438)
T1 chain: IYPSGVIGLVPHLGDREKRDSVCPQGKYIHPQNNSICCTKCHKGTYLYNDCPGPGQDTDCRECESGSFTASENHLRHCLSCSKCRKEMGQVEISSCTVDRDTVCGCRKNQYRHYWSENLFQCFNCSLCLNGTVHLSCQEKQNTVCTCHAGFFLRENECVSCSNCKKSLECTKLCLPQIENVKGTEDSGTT

B1: R61N (designed binder)
chain: MTLQELLREEALRRAEAEAFRYALELLAEKFPEQKEYLLDLAEEIESQIRSLSGVDVEDVNKFLDKEWAWVKELLAEHPAELAEVEAARAARLAELRAEVEAKVAA
B2: S53Q (designed binder)
chain: B1 chain with S53Q, N61R
B3: Q34F (designed binder)
chain: B1 chain with Q34F, N61R
B4: Y22N (designed binder)
chain: B1 chain with Y22N, N61R
B5: E101P (designed binder)
chain: B1 chain with N61R, E101P
B6: R14G (designed binder)
chain: B1 chain with R14G, N61R
B7: F31M (designed binder)
chain: B1 chain with F31M, N61R
B8: K66N (designed binder)
chain: B1 chain with N61R, K66N
B9: L93K (designed binder)
chain: B1 chain with N61R, L93K
B10: E16T (designed binder)
chain: B1 chain with E16T, N61R
B11: A106T (designed binder)
chain: B1 chain with N61R, A106T
B12: L7P (designed binder)
chain: B1 chain with L7P, N61R
B13: E84M (designed binder)
chain: B1 chain with N61R, E84M
B14: E44M (designed binder)
chain: B1 chain with E44M, N61R
B15: L82N (designed binder)
chain: B1 chain with N61R, L82N
B16: D59I (designed binder)
chain: B1 chain with D59I, N61R
B17: A94R (designed binder)
chain: B1 chain with N61R, A94R
B18: I49D (designed binder)
chain: B1 chain with I49D, N61R
B19: A80R (designed binder)
chain: B1 chain with N61R, A80R
B20: A19T (designed binder)
chain: B1 chain with A19T, N61R
B21: I45G (designed binder)
chain: B1 chain with I45G, N61R
B22: A83Y (designed binder)
chain: B1 chain with N61R, A83Y
B23: R13G (designed binder)
chain: B1 chain with R13G, N61R
B24: E58L (designed binder)
chain: B1 chain with E58L, N61R
B25: A28D (designed binder)
chain: B1 chain with A28D, N61R
B26: F31P (designed binder)
chain: B1 chain with F31P, N61R
B27: H78F (designed binder)
chain: B1 chain with N61R, H78F
B28: E9I (designed binder)
chain: B1 chain with E9I, N61R
B29: A76C (designed binder)
chain: B1 chain with N61R, A76C
B30: E84L (designed binder)
chain: B1 chain with N61R, E84L
B31: V55A (designed binder)
chain: B1 chain with V55A, N61R
B32: E86I (designed binder)
chain: B1 chain with N61R, E86I
B33: E18T (designed binder)
chain: B1 chain with E18T, N61R
B34: L12H (designed binder)
chain: B1 chain with L12H, N61R
B35: V104A (designed binder)
chain: B1 chain with N61R, V104A
B36: R14H (designed binder)
chain: B1 chain with R14H, N61R
B37: R89M (designed binder)
chain: B1 chain with N61R, R89M
B38: E58I (designed binder)
chain: B1 chain with E58I, N61R
B39: Y22C (designed binder)
chain: B1 chain with Y22C, N61R
B40: A11D (designed binder)
chain: B1 chain with A11D, N61R
B41: E58N (designed binder)
chain: B1 chain with E58N, N61R
B42: Y22S (designed binder)
chain: B1 chain with Y22S, N61R
B43: V104H (designed binder)
chain: B1 chain with N61R, V104H
B44: E46Q (designed binder)
chain: B1 chain with E46Q, N61R
B45: L6T (designed binder)
chain: B1 chain with L6T, N61R
B46: Y22K (designed binder)
chain: B1 chain with Y22K, N61R
B47: A91I (designed binder)
chain: B1 chain with N61R, A91I
B48: V100E (designed binder)
chain: B1 chain with N61R, V100E
B49: F63C (designed binder)
chain: B1 chain with N61R, F63C
B50: A76E (designed binder)
chain: B1 chain with N61R, A76E
B51: E29K (designed binder)
chain: B1 chain with E29K, N61R
B52: T2P (designed binder)
chain: B1 chain with T2P, N61R
B53: G54M (designed binder)
chain: B1 chain with G54M, N61R
B54: A88F (designed binder)
chain: B1 chain with N61R, A88F
B55: E10T (designed binder)
chain: B1 chain with E10T, N61R

The test has as its target T1, TNFR1. Put plainly: yeast display SC50.
In the case of B1, the “apparent Kd (screen)” value was determined as 1.86 nM. As for B2, the figure is 0.653 nM. Then B3, with 0.79 nM; and B4, with 0.593 nM. Then B5, with 0.446 nM; and B6, with 0.539 nM; and B7, with 0.539 nM.

With B8, the “apparent Kd (screen)” value came out at 0.653 nM. As for B9, the figure is 0.718 nM. As for B10, the figure is 0.539 nM; as for B11, 1.05 nM.

Take B12: the “apparent Kd (screen)” value stood at 0.79 nM. Then B13, with 0.956 nM. As for B14, the figure is 1.69 nM; as for B15, 1.69 nM. Then B16, with 0.653 nM; and B17, with 0.869 nM; and B18, with 12.5 nM. Regarding B19, the “apparent Kd (screen)” value turned out to be 0.593 nM. Consider B20, for which the “apparent Kd (screen)” value was found to be 0.718 nM. Regarding B21, the “apparent Kd (screen)” value came out at 8.56 nM. With B22, the “apparent Kd (screen)” value came out at 0.718 nM.

For the molecule B23, the “apparent Kd (screen)” value came to 0.252 nM. Then B24, with 0.446 nM; and B25, with 18.3 nM; and B26, with 7.78 nM. As for B27, the figure is 0.446 nM. Then B28, with 0.79 nM; and B29, with 0.539 nM; and B30, with 0.49 nM. Take B31: the “apparent Kd (screen)” value came out at 1.16 nM. Then B32, with 0.718 nM; and B33, with 0.593 nM; and B34, with 0.956 nM.

As for B35, the “apparent Kd (screen)” value amounted to 0.653 nM. Then B36, with 0.49 nM; and B37, with 0.869 nM. In the case of B38, the “apparent Kd (screen)” value came out at 0.593 nM. Then B39, with 0.446 nM; and B40, with 0.593 nM; and B41, with 0.49 nM. Then B42, with 0.79 nM. As for B43, the figure is 1.16 nM; as for B44, 0.49 nM. For B45, the “apparent Kd (screen)” value was 10.4 nM.

As for B46, the “apparent Kd (screen)” value is 0.49 nM.

Turning to B47, the “apparent Kd (screen)” value was determined as 0.956 nM.

In the case of B48, the “apparent Kd (screen)” value turned out to be 0.539 nM. For the molecule B49, the “apparent Kd (screen)” value is 6.43 nM.

With B50, the “apparent Kd (screen)” value was 0.593 nM. As for B51, the figure is 0.49 nM; as for B52, 0.718 nM. As for B53, the figure is 12.5 nM; as for B54, 0.718 nM; as for B55, 5.31 nM.

(Values after publication PMC12416549 (2024).)
